B1: THAP1; numbered along this chain (parent)
chain: MVQSCSAYGCKNRYDKDKPVSFHKFPLTRPSLCKEWEAAVRRKNFKPTKYSSICSEHFTPDCFKRECNNKLLKENAVPTIFLCTEPHDKKEDLLEPQEQLPPPPLPPPVSQVDAAIGLLMPPLQTPVNLSVFCDHNYTVEDTMHQRKRIHQLEQQVEKLRKKLKTAQQRCRRQERQLEKLKEVVHFQKEKDDVSERGYVILPNDYFEIVEVPA

Our source for the THAP1 transcriptional activity values is the supplement of paper PMC11811203.

Variants of B1 are the subject of the series. Description: THAP1 transcriptional activity (GFP+/GFP- enrichment relative to wild-type constructs) (ratio to WT); higher = more THAP1 activity (PSMB5 reporter activation). Conditions: with PSMB5 promoter-GFP reporter. In a few lines:
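Variants were counted by Illumina sequencing of genomic DNA amplicons from BFP+ cells sorted into GFP-bright and GFP-dim bins five days after lentiviral transduction, in duplicate at MOI ~0.3. The library changed each of residues 2–213 of human THAP1 to all 20 amino acids and was introduced into THAP1-knockout HEK-293T cells with mClover3 knocked in at endogenous PSMB5. Activity equals the replicate-mean bright/dim read fold change over the mean of wild-type synonymous constructs.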
For MVQSCSAYGCKNRYDKDKPVSFHKFPLTRPSLCKEWEAAVRRKNFKPTKYSSICSEHFTPDCFKRECNNKLLKENAVPTIFLCTEPHDKKEDLLEPQEQLPPPPLPPPVSQVDAAIGLLMPPNQTPVNLSVFCDHNYTVEDTMHQRKRIHQLEQQVEKLRKKLKTAQQRCRRQERQLEKLKEVVHFQKEKDDVSERGYVILPNDYFEIVEVPA [L123N], the THAP1 transcriptional activity worked out at 1.54.

As to MVQSCSAYGCKNRYDKDKPVSFHKFPLTRPSLCKEWEAAVRRKNFKPTKYSSICSEHFTPDCFKRECNNKLLKENAVPTIFLCTEPHDKKEDLLEPQEQLPPPPLPPPVSQVDAAIGLLMPPRQTPVNLSVFCDHNYTVEDTMHQRKRIHQLEQQVEKLRKKLKTAQQRCRRQERQLEKLKEVVHFQKEKDDVSERGYVILPNDYFEIVEVPA [L123R], the THAP1 transcriptional activity was determined as 1.45.

For the variant MVQSCSAYGCKNRYDKDKPVSFHKFPLTRPSLCKEWEAAVRRKNFKPTKYSSICSEHFTPDCFKRECNNKLLKENAVPTIFLCTEPHDKKEDLLEPQEQLPPPPLPPPVSQVDAAIGLLMPPHQTPVNLSVFCDHNYTVEDTMHQRKRIHQLEQQVEKLRKKLKTAQQRCRRQERQLEKLKEVVHFQKEKDDVSERGYVILPNDYFEIVEVPA [L123H], the THAP1 transcriptional activity turned out to be 1.24.

As for MVQSCSAYGCKNRYDKDKPVSFHKFPLTRPSLCKEWEAAVRRKNFKPTKYSSICSEHFTPDCFKRECNNKLLKENAVPTIFLCTEPHDKKEDLLEPQEQLPPPPLPPPVSQVDAAIGLLMPPWQTPVNLSVFCDHNYTVEDTMHQRKRIHQLEQQVEKLRKKLKTAQQRCRRQERQLEKLKEVVHFQKEKDDVSERGYVILPNDYFEIVEVPA [L123W], the THAP1 transcriptional activity was 0.642.

For the variant MVQSCSAYGCKNRYDKDKPVSFHKFPLTRPSLCKEWEAAVRRKNFKPTKYSSICSEHFTPDCFKRECNNKLLKENAVPTIFLCTEPHDKKEDLLEPQEQLPPPPLPPPVSQVDAAIGLLMPPIQTPVNLSVFCDHNYTVEDTMHQRKRIHQLEQQVEKLRKKLKTAQQRCRRQERQLEKLKEVVHFQKEKDDVSERGYVILPNDYFEIVEVPA [L123I], the THAP1 transcriptional activity was 0.913.

For the variant MVQSCSAYGCKNRYDKDKPVSFHKFPLTRPSLCKEWEAAVRRKNFKPTKYSSICSEHFTPDCFKRECNNKLLKENAVPTIFLCTEPHDKKEDLLEPQEQLPPPPLPPPVSQVDAAIGLLMPPQQTPVNLSVFCDHNYTVEDTMHQRKRIHQLEQQVEKLRKKLKTAQQRCRRQERQLEKLKEVVHFQKEKDDVSERGYVILPNDYFEIVEVPA [L123Q], the THAP1 transcriptional activity was 0.814.

With MVQSCSAYGCKNRYDKDKPVSFHKFPLTRPSLCKEWEAAVRRKNFKPTKYSSICSEHFTPDCFKRECNNKLLKENAVPTIFLCTEPHDKKEDLLEPQEQLPPPPLPPPVSQVDAAIGLLMPPDQTPVNLSVFCDHNYTVEDTMHQRKRIHQLEQQVEKLRKKLKTAQQRCRRQERQLEKLKEVVHFQKEKDDVSERGYVILPNDYFEIVEVPA [L123D], the THAP1 transcriptional activity turned out to be 1.45.

Regarding MVQSCSAYGCKNRYDKDKPVSFHKFPLTRPSLCKEWEAAVRRKNFKPTKYSSICSEHFTPDCFKRECNNKLLKENAVPTIFLCTEPHDKKEDLLEPQEQLPPPPLPPPVSQVDAAIGLLMPPTQTPVNLSVFCDHNYTVEDTMHQRKRIHQLEQQVEKLRKKLKTAQQRCRRQERQLEKLKEVVHFQKEKDDVSERGYVILPNDYFEIVEVPA [L123T], the THAP1 transcriptional activity stood at 1.44.

As for MVQSCSAYGCKNRYDKDKPVSFHKFPLTRPSLCKEWEAAVRRKNFKPTKYSSICSEHFTPDCFKRECNNKLLKENAVPTIFLCTEPHDKKEDLLEPQEQLPPPPLPPPVSQVDAAIGLLMPPFQTPVNLSVFCDHNYTVEDTMHQRKRIHQLEQQVEKLRKKLKTAQQRCRRQERQLEKLKEVVHFQKEKDDVSERGYVILPNDYFEIVEVPA [L123F], the THAP1 transcriptional activity stood at 0.608.

For MVQSCSAYGCKNRYDKDKPVSFHKFPLTRPSLCKEWEAAVRRKNFKPTKYSSICSEHFTPDCFKRECNNKLLKENAVPTIFLCTEPHDKKEDLLEPQEQLPPPPLPPPVSQVDAAIGLLMPPPQTPVNLSVFCDHNYTVEDTMHQRKRIHQLEQQVEKLRKKLKTAQQRCRRQERQLEKLKEVVHFQKEKDDVSERGYVILPNDYFEIVEVPA [L123P], the THAP1 transcriptional activity stood at 1.05.

Consider MVQSCSAYGCKNRYDKDKPVSFHKFPLTRPSLCKEWEAAVRRKNFKPTKYSSICSEHFTPDCFKRECNNKLLKENAVPTIFLCTEPHDKKEDLLEPQEQLPPPPLPPPVSQVDAAIGLLMPPMQTPVNLSVFCDHNYTVEDTMHQRKRIHQLEQQVEKLRKKLKTAQQRCRRQERQLEKLKEVVHFQKEKDDVSERGYVILPNDYFEIVEVPA [L123M], for which the THAP1 transcriptional activity was 0.859.

On to MVQSCSAYGCKNRYDKDKPVSFHKFPLTRPSLCKEWEAAVRRKNFKPTKYSSICSEHFTPDCFKRECNNKLLKENAVPTIFLCTEPHDKKEDLLEPQEQLPPPPLPPPVSQVDAAIGLLMPPSQTPVNLSVFCDHNYTVEDTMHQRKRIHQLEQQVEKLRKKLKTAQQRCRRQERQLEKLKEVVHFQKEKDDVSERGYVILPNDYFEIVEVPA [L123S], for which the THAP1 transcriptional activity came to 0.637.

Turning to MVQSCSAYGCKNRYDKDKPVSFHKFPLTRPSLCKEWEAAVRRKNFKPTKYSSICSEHFTPDCFKRECNNKLLKENAVPTIFLCTEPHDKKEDLLEPQEQLPPPPLPPPVSQVDAAIGLLMPPEQTPVNLSVFCDHNYTVEDTMHQRKRIHQLEQQVEKLRKKLKTAQQRCRRQERQLEKLKEVVHFQKEKDDVSERGYVILPNDYFEIVEVPA [L123E], the THAP1 transcriptional activity amounted to 1.45.

MVQSCSAYGCKNRYDKDKPVSFHKFPLTRPSLCKEWEAAVRRKNFKPTKYSSICSEHFTPDCFKRECNNKLLKENAVPTIFLCTEPHDKKEDLLEPQEQLPPPPLPPPVSQVDAAIGLLMPPGQTPVNLSVFCDHNYTVEDTMHQRKRIHQLEQQVEKLRKKLKTAQQRCRRQERQLEKLKEVVHFQKEKDDVSERGYVILPNDYFEIVEVPA [L123G]: the THAP1 transcriptional activity was found to be 0.957.
